From the supplement of paper PMC12764529 come the findings set out here.

Series [1] can be described thus: folding stability dG unfold from chymotrypsin proteolysis; higher = more stable. In outline:
(§1)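 Bayesian fitting of sequencing counts gave K50 for each design. Unfolding free energy followed by setting this against a sequence-predicted unfolded-state K50 and a shared folded-state K50, either per protease or with trypsin and chymotrypsin combined. The designs, under 80 residues and lacking cysteine, were digested in a PA-tagged cDNA display format at 11 threefold-diluted protease concentrations and without protease, and only those with AlphaFold2 dimer inter-PAE above 15 were kept.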

A short description of series [2]: folding stability dG unfold from trypsin proteolysis; higher = more stable. In outline:
as §1

A short description of series [3]: folding stability dG unfold (combined trypsin and chymotrypsin); higher = more stable. The gist of the method: as §1

± gives the half width of the 95% confidence interval.

“SAGGSAGGSMKTYTLPNGLRVQLVRVDKKTKTITLKVFDKNGELVEEIEIKVDEPVELLVVYPSAGGSAGGS [r12_960_TrROS_Hall]”: the “folding stability dG unfold” value in series [1] was 2.69 ± 0.05 kcal/mol; in series [2], 2.09 ± 0.061 kcal/mol; in series [3] it was 2.45 ± 0.15 kcal/mol.

With “SAGGSAGGSMKVSPASRSEFDGSRVITITVTKEGTGTTTDITIPFSPDEPDVDEVAKAIAESLSAGGSAGGS [r12_415_JUSTAS]”, the “folding stability dG unfold” value came to 1.12 ± 0.023 kcal/mol in series [1], 0.0886 ± 0.12 kcal/mol in series [2] and 0.838 ± 0.091 kcal/mol in series [3].

With “SAGGSAGGSMKVVKILSIETKAEKDEEVLTIPVLDPANGKVITLTVSPEVAKTITTDDEIELLSAGGSAGGS [r12_382_JUSTAS]”, the “folding stability dG unfold” value in series [1] is 0.517 ± 0.12 kcal/mol; in series [2] it was 0.177 ± 0.14 kcal/mol; in series [3], 0.47 ± 0.14 kcal/mol.

For “SAGGSAGGSMKVVVTAKLPGGEVLQKTIPVDESVLKKMSKEEVIELLKKEGLPENVEIKFEPKSAGGSAGGS [r12_742_JUSTAS]”, the “folding stability dG unfold” value in series [1] came out at 2.17 ± 0.15 kcal/mol; in series [2], 1.34 ± 0.067 kcal/mol; in series [3], 1.81 ± 0.24 kcal/mol.

As for “SAGGSAGGSMKYLVTFPEGGPVPLPDGTSVALAPGAVLELETEEEAEALKALNPGRPVVITPVSAGGSAGGS [r12_987_JUSTAS]”, the “folding stability dG unfold” value in series [1] amounted to 1.35 ± 0.03 kcal/mol; in series [2], 1.51 ± 0.037 kcal/mol; in series [3], 1.47 ± 0.05 kcal/mol.

Take “SAGGSAGGSMKYYKTKDGKIVKAPPIETVKLKLKLEINGKKIEIEIEMSKEEIDKLLKELEKKSAGGSAGGS [r20_148_TrROS_Hall]”: the results for the “folding stability dG unfold” value in series [1], in series [2] and in series [3] were 1.27 ± 0.17 kcal/mol, 0.717 ± 0.051 kcal/mol and 1.05 ± 0.13 kcal/mol, respectively.

Consider “SAGGSAGGSMLPADTKVIKITVESTLPDGSTTTHTVTVPSSVPLEAVKEQLPPGATITEVVLASAGGSAGGS [r12_597_JUSTAS]”, for which the “folding stability dG unfold” value in series [1] was 0.931 ± 0.011 kcal/mol; in series [2] it was 1.44 ± 0.064 kcal/mol; in series [3], 1.16 ± 0.059 kcal/mol.

Turning to “SAGGSAGGSMLPLPIESIEVVPRRAPGGKTYYVAFIRLKADGKPLVIEFEADNPGEALEKLEASAGGSAGGS [r20_238_TrMRF]”, the “folding stability dG unfold” value was found to be 1.46 ± 0.11 kcal/mol in series [1], 1.14 ± 0.046 kcal/mol in series [2] and 1.34 ± 0.14 kcal/mol in series [3].

Take “SAGGSAGGSMLTVKITLPNGEKIEIEIEAESEEEAKAAAEKLLEALREAGVSLEDVKVEVVEPSAGGSAGGS [r12_295_TrROS_Hall]”: the entries for the “folding stability dG unfold” value in series [1], in series [2] and in series [3] were 2.92 ± 0.11 kcal/mol, 4.46 ± 0.67 kcal/mol and 3.66 ± 0.29 kcal/mol, respectively.

Take “SAGGSAGGSMNVPPGESVTVTVPPGTGLEWLRAQLPSSRTWDFATFVSENPSPPVTTYEITVGSAGGSAGGS [r12_469_JUSTAS]”: the “folding stability dG unfold” value was 2 ± 0.077 kcal/mol in series [1], 1.16 ± 0.078 kcal/mol in series [2] and 1.76 ± 0.11 kcal/mol in series [3].

With “SAGGSAGGSMPKKTYEFEIEYEDPEEAVEKAIREFEEETGEKIEEVEVEYDPEKGIVKITLVKSAGGSAGGS [r12_265_JUSTAS]”, the entries for the “folding stability dG unfold” value in series [1], in series [2] and in series [3] were 1.44 ± 0.088 kcal/mol, 0.921 ± 0.066 kcal/mol and 1.27 ± 0.21 kcal/mol, respectively.

Consider “SAGGSAGGSMPKTYSFKVKSKEEIVKLIEELKKLGAKKVEVKELPDGYELYVEVGDSVIKVYSSAGGSAGGS [r12_846_TrMRF]”, for which the “folding stability dG unfold” value was found to be 1.1 ± 0.16 kcal/mol in series [1], 1.31 ± 0.065 kcal/mol in series [2] and 1.24 ± 0.13 kcal/mol in series [3].

As for “SAGGSAGGSMPPVVLEVKDPESGKVTTLFFFPPTGEALVVPPDGSVFYEPFTSLDELVERLAGSAGGSAGGS [r12_511_TrMRF]”, the “folding stability dG unfold” value worked out at 1.71 ± 0.051 kcal/mol in series [1], 1.4 ± 0.055 kcal/mol in series [2] and 1.57 ± 0.091 kcal/mol in series [3].

On to “SAGGSAGGSMPVITVDPSIKEFKDEKGNKYLLTPVTVTLPNGVPVTVVYTTDPSTGKTTPATSGSAGGSAGG [r6_298_JUSTAS]”, for which the figures for the “folding stability dG unfold” value in series [1], in series [2] and in series [3] were 0.481 ± 0.12 kcal/mol, 0.671 ± 0.059 kcal/mol and 0.62 ± 0.1 kcal/mol, respectively.

Take “SAGGSAGGSMPVLVSESPVGTLPDGTKVTRVTYRFPNGEILTETVVEPGPGPPTPENVALTLASAGGSAGGS [r12_775_JUSTAS]”: the figures for the “folding stability dG unfold” value in series [1], in series [2] and in series [3] were 1.19 ± 0.23 kcal/mol, 2.04 ± 0.18 kcal/mol and 1.6 ± 0.29 kcal/mol, respectively.

Turning to “SAGGSAGGSMRFPPGQKIEIEEWKHNPNGGNYQVSIRFKDGKKKTFTSPEDIDRLIKAGHVKISAGGSAGGS [r12_455_TrROS]”, the “folding stability dG unfold” value in series [1] is 1.33 ± 0.19 kcal/mol; in series [2], -0.0362 ± 0.26 kcal/mol; in series [3], 0.822 ± 0.21 kcal/mol.

Regarding “SAGGSAGGSMRIKFEFKIGDKWVEEEIPADLSQLPLSEIKKKHPKAEYKIEIEDEEGNWTPLLSAGGSAGGS [r12_540_JUSTAS]”, the “folding stability dG unfold” value stood at 1.04 ± 0.1 kcal/mol in series [1], 0.262 ± 0.11 kcal/mol in series [2] and 0.767 ± 0.12 kcal/mol in series [3].

For “SAGGSAGGSMRLDLDDIKRVEREPTPNGMRVYEIKLKGHKLPIRYHDNKIEISPEFKDLLKDISAGGSAGGS [r20_92_TrROS]”, the entries for the “folding stability dG unfold” value in series [1], in series [2] and in series [3] were -0.483 ± 0.23 kcal/mol, -0.382 ± 0.19 kcal/mol and -0.253 ± 0.15 kcal/mol, respectively.

On to “SAGGSAGGSMSEELLAEGPVRIRVRVRNKDGSVEEIEVEAGEEIELPEELKNQDVEIVSIEPVSAGGSAGGS [r12_161_TrROS_Hall]”, for which the “folding stability dG unfold” value in series [1] was 2.15 ± 0.088 kcal/mol; in series [2], 0.838 ± 0.058 kcal/mol; in series [3] it was 1.74 ± 0.089 kcal/mol.

For the sequence “SAGGSAGGSMSPEEAKKLAEELAKKLGLEKVEIVEIKVEVDEETNEIKVTIYIRGKDGKWYKLSAGGSAGGS [r12_508_TrROS_Hall]”, the “folding stability dG unfold” value in series [1] was 4.2 ± 0.07 kcal/mol; in series [2], 3.48 ± 0.18 kcal/mol; in series [3], 3.96 ± 0.074 kcal/mol.

In the case of “SAGGSAGGSMSPEEARALAEALAEALGEPDVEVLEVVQTENPAADSTTVTVTIRLPDGSVRVLSAGGSAGGS [r12_508_JUSTAS]”, the figures for the “folding stability dG unfold” value in series [1], in series [2] and in series [3] were 1.481 ± 0.014 kcal/mol, 1.63 ± 0.079 kcal/mol and 1.63 ± 0.06 kcal/mol, respectively.

Regarding “SAGGSAGGSMSPSESVTLTVVVEEITPGTPKVLLPEEVKEKYPNFEVQVKVEGKPATVTITRPSAGGSAGGS [r12_900_JUSTAS]”, the “folding stability dG unfold” value in series [1] came to 0.444 ± 0.017 kcal/mol; in series [2] it was 0.321 ± 0.021 kcal/mol; in series [3], 0.385 ± 0.077 kcal/mol.

Turning to “SAGGSAGGSMTFSSEEEAEAFIAQLPPDSEVEVEIKDPNTDKTTKYKIKVPPEQPVYSPKGVLSAGGSAGGS [r12_393_JUSTAS]”, the figures for the “folding stability dG unfold” value in series [1], in series [2] and in series [3] were 1.5 ± 0.063 kcal/mol, 0.308 ± 0.11 kcal/mol and 1.2 ± 0.14 kcal/mol, respectively.

Regarding “SAGGSAGGSMTILEEEVVPETGLVRILVKLPNGELLELEVDPSVGVTPVKVDGKPIFDVTVDPSAGGSAGGS [r12_789_JUSTAS]”, the “folding stability dG unfold” value turned out to be 1.3 ± 0.082 kcal/mol in series [1], 0.898 ± 0.038 kcal/mol in series [2] and 1.19 ± 0.11 kcal/mol in series [3].

“SAGGSAGGSMTKTITTKTEEEAESEARRLLKEEGVPEGVEPTPITLESVDPEKGLYTFTVELESAGGSAGGS [r12_999_JUSTAS]”: the “folding stability dG unfold” value is 0.395 ± 0.099 kcal/mol in series [1], 0.2 ± 0.062 kcal/mol in series [2] and 0.379 ± 0.076 kcal/mol in series [3].

As for “SAGGSAGGSMTLIGTTTLPSPDGSLVTVDTYKVPGSDELVAKVTTLNGTTWTTETRPLSEFLKSAGGSAGGS [r12_1063_JUSTAS]”, the “folding stability dG unfold” value in series [1] was determined as 0.913 ± 0.14 kcal/mol; in series [2] it was 0.188 ± 0.081 kcal/mol; in series [3] it was 0.646 ± 0.1 kcal/mol.
